Patent US20250262210A1 (TRUSTEES OF COLUMBIA UNIVERSITY IN THE CITY OF NEW YORK, published 2025)
Positions count from the first letter of the chain named.

T1: LZTR1 R810W-FLAG (human, UniProt Q8N653 1-840)
T1 construct: Stably expressed in U87 cells by lentivirus; also called LZTR1-FLAG-R810W; LZTR1 RW; not shown: FLAG tag
T1 sequence (looked up): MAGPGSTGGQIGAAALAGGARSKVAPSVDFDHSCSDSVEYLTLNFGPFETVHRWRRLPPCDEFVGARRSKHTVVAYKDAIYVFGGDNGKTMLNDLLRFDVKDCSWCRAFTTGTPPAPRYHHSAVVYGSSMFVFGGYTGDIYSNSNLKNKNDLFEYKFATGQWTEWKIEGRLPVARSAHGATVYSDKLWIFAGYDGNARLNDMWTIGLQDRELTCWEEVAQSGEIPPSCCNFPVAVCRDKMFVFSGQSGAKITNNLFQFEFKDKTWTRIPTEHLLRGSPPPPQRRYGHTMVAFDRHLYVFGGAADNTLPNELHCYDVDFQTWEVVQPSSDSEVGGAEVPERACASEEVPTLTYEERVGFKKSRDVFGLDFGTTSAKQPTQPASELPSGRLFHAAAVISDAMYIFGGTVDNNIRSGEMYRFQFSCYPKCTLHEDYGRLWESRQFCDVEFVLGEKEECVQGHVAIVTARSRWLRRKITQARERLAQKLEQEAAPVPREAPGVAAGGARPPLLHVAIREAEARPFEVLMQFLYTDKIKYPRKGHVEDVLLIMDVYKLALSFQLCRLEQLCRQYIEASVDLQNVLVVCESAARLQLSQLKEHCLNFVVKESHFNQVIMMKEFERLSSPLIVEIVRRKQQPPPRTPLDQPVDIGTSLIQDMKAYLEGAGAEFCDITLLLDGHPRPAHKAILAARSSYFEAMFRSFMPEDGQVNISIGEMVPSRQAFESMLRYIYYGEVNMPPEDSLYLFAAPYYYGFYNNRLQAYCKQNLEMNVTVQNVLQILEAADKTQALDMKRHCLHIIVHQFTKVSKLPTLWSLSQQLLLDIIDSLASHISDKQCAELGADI

T2: LZTR1-FLAG (human, UniProt Q8N653 1-840)
T2 construct: Expressed in HEK 293T, HeLa or U87 cells; used as cell lysate; also called LZTR1 wild type-FLAG; LZTR1 WT; not shown: FLAG tag at the C-terminus
T2 sequence (looked up): T1 sequence (looked up) with W810R

B1: ADAM 15 (other, human, UniProt Q13444 207-863, looked up)
chain: DVVTETKTVELVIVADHSEAQKYRDFQHLLNRTLEVALLLDTFFRPLNVRVALVGLEAWTQRDLVEISPNPAVTLENFLHWRRAHLLPRLPHDSAQLVTGTSFSGPTVGMAIQNSICSPDFSGGVNMDHSTSILGVASSIAHELGHSLGLDHDLPGNSCPCPGPAPAKTCIMEASTDFLPGLNFSNCSRRALEKALLDGMGSCLFERLPSLPPMAAFCGNMFVEPGEQCDCGFLDDCVDPCCDSLTCQLRPGAQCASDGPCCQNCQLRPSGWQCRPTRGDCDLPEFCPGDSSQCPPDVSLGDGEPCAGGQAVCMHGRCASYAQQCQSLWGPGAQPAAPLCLQTANTRGNAFGSCGRNPSGSYVSCTPRDAICGQLQCQTGRTQPLLGSIRDLLWETIDVNGTELNCSWVHLDLGSDVAQPLLTLPGTACGPGLVCIDHRCQRVDLLGAQECRSKCHGHGVCDSNRHCYCEEGWAPPDCTTQLKATSSLTTGLLLSLLVLLVLVMLGASYWYRARLHQRLCQLKGPTCQYRAAQSGPSERPGPPQRALLARGTKQASALSFPAPPSRPLPPDPVSKRLQAELADRPNPPTRPLPADPVVRSPKSQGPAKPPPPRKPLPADPQGRCPSGDLPGPGAGIPPLVVPSRPAPPPPTVSSLYL
notes: Printed as ADAM 15; read as ADAM15
B2: APEH (other, human, UniProt P13798 1-732, looked up)
chain: MERQVLLSEPEEAAALYRGLSRQPALSAACLGPEVTTQYGGQYRTVHTEWTQRDLERMENIRFCRQYLVFHDGDSVVFAGPAGNSVETRGELLSRESPSGTMKAVLRKAGGTGPGEEKQFLEVWEKNRKLKSFNLSALEKHGPVYEDDCFGCLSWSHSETHLLYVAEKKRPKAESFFQTKALDVSASDDEIARLKKPDQAIKGDQFVFYEDWGENMVSKSIPVLCVLDVESGNISVLEGVPENVSPGQAFWAPGDAGVVFVGWWHEPFRLGIRFCTNRRSALYYVDLIGGKCELLSDDSLAVSSPRLSPDQCRIVYLQYPSLIPHHQCSQLCLYDWYTKVTSVVVDVVPRQLGENFSGIYCSLLPLGCWSADSQRVVFDSAQRSRQDLFAVDTQVGTVTSLTAGGSGGSWKLLTIDQDLMVAQFSTPSLPPTLKVGFLPSAGKEQSVLWVSLEEAEPIPDIHWGIRVLQPPPEQENVQYAGLDFEAILLQPGSPPDKTQVPMVVMPHGGPHSSFVTAWMLFPAMLCKMGFAVLLVNYRGSTGFGQDSILSLPGNVGHQDVKDVQFAVEQVLQEEHFDASHVALMGGSHGGFISCHLIGQYPETYRACVARNPVINIASMLGSTDIPDWCVVEAGFPFSSDCLPDLSVWAEMLDKSPIRYIPQVKTPLLLMLGQEDRRVPFKQGMEYYRALKTRNVPVRLLLYPKSTHALSEVEVESDSFMNAVLWLRTHLGS
B3: AMOTL2 (other, human, UniProt Q9Y2J4 1-779, looked up)
chain: MRTLEDSSGTVLHRLIQEQLRYGNLTETRTLLAIQQQALRGGAGTGGTGSPQASLEILAPEDSQVLQQATRQEPQGQEHQGGENHLAENTLYRLCPQPSKGEELPTYEEAKAHSQYYAAQQAGTRPHAGDRDPRGAPGGSRRQDEALRELRHGHVRSLSERLLQLSLERNGARAPSHMSSSHSFPQLARNQQGPPLRGPPAEGPESRGPPPQYPHVVLAHETTTAVTDPRYRARGSPHFQHAEVRILQAQVPPVFLQQQQQYQYLQQSQEHPPPPHPAALGHGPLSSLSPPAVEGPVSAQASSATSGSAHLAQMEAVLRENARLQRDNERLQRELESSAEKAGRIEKLESEIQRLSEAHESLTRASSKREALEKTMRNKMDSEMRRLQDFNRDLRERLESANRRLASKTQEAQAGSQDMVAKLLAQSYEQQQEQEKLEREMALLRGAIEDQRRRAELLEQALGNAQGRAARAEEELRKKQAYVEKVERLQQALGQLQAACEKREQLELRLRTRLEQELKALRAQQRQAGAPGGSSGSGGSPELSALRLSEQLREKEEQILALEADMTKWEQKYLEERAMRQFAMDAAATAAAQRDTTLIRHSPQPSPSSSFNEGLLTGGHRHQEMESRLKVLHAQILEKDAVIKVLQQRSRRDPGKAIQGSLRPAKSVPSVFAAAAAGTQGWQGLSSSERQTADAPARLTTDRAPTEEPVVTAPPAAHAKHGSRDGSTQTEGPPDSTSTCLPPEPDSLLGCSSSQRAASLDSVATSRVQDLSDMVEILI
B4: ARAF (other, human, UniProt P10398 1-606, looked up)
chain: MEPPRGPPANGAEPSRAVGTVKVYLPNKQRTVVTVRDGMSVYDSLDKALKVRGLNQDCCVVYRLIKGRKTVTAWDTAIAPLDGEELIVEVLEDVPLTMHNFVRKTFFSLAFCDFCLKFLFHGFRCQTCGYKFHQHCSSKVPTVCVDMSTNRQQFYHSVQDLSGGSRQHEAPSNRPLNELLTPQGPSPRTQHCDPEHFPFPAPANAPLQRIRSTSTPNVHMVSTTAPMDSNLIQLTGQSFSTDAAGSRGGSDGTPRGSPSPASVSSGRKSPHSKSPAEQRERKSLADDKKKVKNLGYRDSGYYWEVPPSEVQLLKRIGTGSFGTVFRGRWHGDVAVKVLKVSQPTAEQAQAFKNEMQVLRKTRHVNILLFMGFMTRPGFAIITQWCEGSSLYHHLHVADTRFDMVQLIDVARQTAQGMDYLHAKNIIHRDLKSNNIFLHEGLTVKIGDFGLATVKTRWSGAQPLEQPSGSVLWMAAEVIRMQDPNPYSFQSDVYAYGVVLYELMTGSLPYSHIGCRDQIIFMVGRGYLSPDLSKISSNCPKAMRRLLSDCLKFQREERPLFPQILATIELLQRSLPKIERSASEPSLHRTQADELPACLLSAARLVP
B5: AHR (other, human, UniProt P35869 11-848, looked up)
chain: ASRKRRKPVQKTVKPIPAEGIKSNPSKRHRDRLNTELDRLASLLPFPQDVINKLDKLSVLRLSVSYLRAKSFFDVALKSSPTERNGGQDNCRAANFREGLNLQEGEFLLQALNGFVLVVTTDALVFYASSTIQDYLGFQQSDVIHQSVYELIHTEDRAEFQRQLHWALNPSQCTESGQGIEEATGLPQTVVCYNPDQIPPENSPLMERCFICRLRCLLDNSSGFLAMNFQGKLKYLHGQKKKGKDGSILPPQLALFAIATPLQPPSILEIRTKNFIFRTKHKLDFTPIGCDAKGRIVLGYTEAELCTRGSGYQFIHAADMLYCAESHIRMIKTGESGMIVFRLLTKNNRWTWVQSNARLLYKNGRPDYIIVTQRPLTDEEGTEHLRKRNTKLPFMFTTGEAVLYEATNPFPAIMDPLPLRTKNGTSGKDSATTSTLSKDSLNPSSLLAAMMQQDESIYLYPASSTSSTAPFENNFFNESMNECRNWQDNTAPMGNDTILKHEQIDQPQDVNSFAGGHPGLFQDSKNSDLYSIMKNLGIDFEDIRHMQNEKFFRNDFSGEVDFRDIDLTDEILTYVQDSLSKSPFIPSDYQQQQSLALNSSCMVQEHLHLEQQQQHHQKQVVVEPQQQLCQKMKHMQVNGMFENWNSNQFVPFNCPQQDPQQYNVFTDLHGISQEFPYKSEMDSMPYTQNFISCNQPVLPQHSKCTELDYPMGSFEPSPYPTTSSLEDFVTCLQLPENQKHGLNPQSAIITPQTCYAGAVSMYQCQPEPQHTHVGQMQYNPVLPGQQAFLNKFQNGVLNETYPAELNNINNTQTTTHLQPLHHPSEARPFPDLTSSGFL

What follows are binders tested against T1, LZTR1 R810W-FLAG (assay: IP/MS, LZTR1 R810W-FLAG, U87).
Method: (§1) Lysates were immunoprecipitated with FLAG affinity matrix and eluted with FLAG peptide. […] Protein gel slices were excised and in-gel digestion performed as previously described (83), with minor modifications. Gel slices were washed with 1:1 A cetonitrile and 100 mM ammonium bicarbonate for 30 min then dehydrated with 100% acetonitrile for 10 min until shrunk. The excess acetonitrile was then removed and the slices dried in speed-vacuum at room temperature for 10 min. Gel slices were reduced with 5 mM DTT for 30 min at 56° C. in an air thermostat, cooled down to room temperature, and alkylated with 11 mM IAA for 30 min with no light. Gel slices were then washed with 100 mM of ammonium bicarbonate and 100% acetonitrile for 10 min each. Excess acetonitrile was removed and dried in a speed-vacuum for 10 min at room temperature and the gel slices were re-hydrated in a solution of 25 ng/μl trypsin in 50 mM ammonium bicarbonate for 30 min on ice and digested overnight at 37° C. in an air thermostat. Digested peptides were collected and further extracted from gel slices in extraction buffer (1:2 ratio by volume of 5% formic acid:acetonitrile) at high speed, shaking in an air thermostat. The supernatants from both extractions were combined and dried in a speed-vacuum. Peptides were dissolved in 3% acetonitrile/0.1% formic acid. Desalted peptides were injected in an EASY-Spray™ PepMap™ RSLC C18 50 cm×[…] column (Thermo Scientific) connected to an Orbitrap Fusion™ Tribrid™ (Thermo Scientific) as described in “Global ubiquitylation enrichment” section. The following modifications were used for protein identification and quantification: oxidation of methionine (M), acetylation of the protein N-terminus, and deamination for asparagine or glutamine (NQ). Results obtained from MaxQuant were assembled in Scaffold for data visualization.
B1: binds. B2: binds. B3: binds. B4: binds. B5: binds.

The binders below were run against T2, LZTR1-FLAG (assay: IP/MS, LZTR1 wild type-FLAG, U87).
Method: as §1
B1: binds. B2: binds. B3: binds. B5: binds.
